{"source": "patent US6911324B2", "about": "“Induction of beta cell differentiation in human cells” (The Regents of the University of California, priority 2001, dated 2005)", "molecules": {"B1": {"name": "betacellulin (protein, UniProt P35070 32-111, looked up)", "Betacellulin": "DGNSTRSPETNGLLCGDPEENCAATTTQSKRKGHFSRCPKQYKHYCIKGRCRFVVAEQTPSCVCDEGYIGARCERVDLFY", "notes": "factor reported to induce endocrine differentiation in cell lines and primary cells"}}, "test_system": "βlox5 cells", "assay": "RT-PCR analysis of pancreatic hormone gene expression in βlox5 cells", "type": "cell-based, human", "conditions": "βlox5 cells expressing PDX-1; data not shown", "experimental": "FIG. 2: RT-PCR analysis of pancreatic hormone gene expression in βlox5. The conditions tested were βlox5 cells grown in monolayer culture, βlox5 cells infected with a retroviral vector expressing PDX-1, βlox5 cells grown as three-dimensional aggregates, and βlox5 cells treated with exendin-4. FIG. 2(A) insulin; FIG. 2(B) quantitative RT-PCR analysis of insulin gene expression; FIG. 2(C) other pancreatic hormones. Exendin-4 (Sigma) was used at a concentration of 10 nM. RT-PCR for insulin, somatostatin, glucagon, and IAPP have been described previously (Itkin-Ansari et al., submitted). Quantitative RT-PCR was done by interpolation from a standard curve constructed using a plasmid containing the human insulin cDNA.\nPDX-1 also acted synergistically with cell-cell contact to further increase the level of somatostatin expression about 1,000-fold above the cells not expressing PDX-1, to a level similar to that found in normal human islets. To determine whether βlox5 could be induced to express pancreatic hormones, recombinant PDX-1 was expressed in βlox5 using a retroviral vector. […] Therefore, other factors were examined for their ability to induce hormone expression in βlox5 cells expressing PDX-1. […]", "data": [{"molecule": "B1", "values": [{"measurement": "effect on hormone expression in βlox5 cells", "value": "no effect"}]}]}
